B1: zebRBPR2 (34) peptide (peptide)
peptide: DKLDSLKDSLEQIALSCNQTESVFTYLIPSINEF
notes: zebrafish RBPR2 peptide of 34 residues; also called zebrafish RBPR2 peptide; source: synthetic peptide (Biomatik Corporation)
B2: msStra6 (40) peptide (peptide)
peptide: SVVPTVQKVRAGINTDVSYLLAGFGIVLSEDRQEVVELVK
notes: mouse STRA6 peptide of 40 residues with Tyr336, Gly340 and Gly342; also called msSTRA6 peptide; mouse STRA6 peptide; source: synthetic peptide (Biomatik Corporation)
B3: msRbpr2 (42) peptide (peptide)
peptide: HVRDKLDMFEDKLESYLTHMNETGTLTPIILQVKELISVTKG
notes: mouse RBPR2 (STRA6like) peptide of 42 residues with the SYL residues S294, Y295, L296; also called WT-msRBPR2 peptide; mouse RBPR2 peptide; source: synthetic peptide (Biomatik Corporation)

Target: T1, Recombinant mouse RBP4 with 6XHis Tag (mouse, UniProt Q00724 19-201)
T1 construct: Amine-coupled to a CM5 chip for SPR; also called msRBP4; source: E. coli expression system, purified (nickel NTA column)
Test: SPR; mouse RBP4 amine-coupled to a CM5 chip (target 1,200 RU), Biacore S200; peptides as analytes, 0.8-26.6 uM; running buffer PBST (0.05% Tween20); 25 C; contact 120 s, dissociation 300 s; Kd from the site-specific binding fit Y=(Bmax*X)/(Kd+X)
Conditions: both partners purified

| Binder | Kd |
| --- | --- |
| B1 | 33.2 µM |
| B2 | 26.7 µM |
| B3 | 25.4 µM |

From PMC9992173, “Mapping of the extracellular RBP4 ligand binding domain on the RBPR2 receptor for Vitamin A transport” (Frontiers in Cell and Developmental Biology, 2023)
